Experimental data taken from patent publication US20220259593A1, “CONTROL OF MAMMALIAN GENE DOSAGE USING CRISPR” (The Regents of the University of California, priority 2019, published 2022).
Substitutions are numbered along the chain they refer to.

B1: cr333 (nucleic acid)
guide: GTTTAAGAGCTAAGCTGGAAACAGCATAGCAAGTTTAAATAAGGCTAGTCCGTTATCAAGGTGAAAACCTGGCACCGAGTCGGTGCT
modifications: listed as DNA, chemistry not fully specified
B2: cr232 (nucleic acid)
guide: B1 guide with T27C, G60C, G61T, C68A, C69G
modifications: listed as DNA, chemistry not fully specified
B3: cr139 (nucleic acid)
guide: B1 guide with G60C, G61T, C68A, C69G, C75A, G83T
modifications: listed as DNA, chemistry not fully specified
B4: cr672 (nucleic acid)
guide: B1 guide with G60C, G61T, C68A, C69G, C75T
modifications: listed as DNA, chemistry not fully specified
B5: cr656 (nucleic acid)
guide: B1 guide with G60C, G61T, C68A, C69G, A74C, T84G
modifications: listed as DNA, chemistry not fully specified
B6: cr393 (nucleic acid)
guide: B1 guide with G60C, G61T, A65C, C68A, C69G, G79A
modifications: listed as DNA, chemistry not fully specified
B7: cr968 (nucleic acid)
guide: B1 guide with G60C, G61T, C68A, C69G, C73A, G85T
modifications: listed as DNA, chemistry not fully specified
B8: cr155 (nucleic acid)
guide: B1 guide with G60T, G61T, T62G, A67C, C68A, C69A, C75T, G83A
modifications: listed as DNA, chemistry not fully specified
B9: cr901 (nucleic acid)
guide: B1 guide with G60C, G61T, A66G, C68A, C69G
modifications: listed as DNA, chemistry not fully specified
B10: cr945 (nucleic acid)
guide: B1 guide with G60C, G61T, A66G, C68A, C69G, G79T
modifications: listed as DNA, chemistry not fully specified
B11: cr128 (nucleic acid)
guide: B1 guide with A59G, G60C, G61T, C68A, C69G, T70C, C76A, G82T
modifications: listed as DNA, chemistry not fully specified
B12: cr851 (nucleic acid)
guide: B1 guide with A59G, G60C, G61T, C68A, C69G, T70C, G77A, C81T
modifications: listed as DNA, chemistry not fully specified
B13: cr923 (nucleic acid)
guide: B1 guide with G60C, G61T, C68A, C69G, G72A, A74C, T84G, C86T
modifications: listed as DNA, chemistry not fully specified
B14: cr722 (nucleic acid)
guide: B1 guide with G60C, G61T, A65G, C68A, C69G, A74C, T84G
modifications: listed as DNA, chemistry not fully specified
B15: cr156 (nucleic acid)
guide: B1 guide with G60C, G61T, T62A, A67T, C68A, C69G
modifications: listed as DNA, chemistry not fully specified
B16: cr995: original, un-modified sgRNA constant region sequence (nucleic acid)
guide: B1 guide with G60C, G61T, C68A, C69G
modifications: listed as DNA, chemistry not fully specified
B17: cr392 (nucleic acid)
guide: B1 guide with A32T, G60C, G61T, A65T, C68A, C69G
modifications: listed as DNA, chemistry not fully specified
B18: cr947 (nucleic acid)
guide: B1 guide with A19G, G60C, G61T, C68A, C69G
modifications: listed as DNA, chemistry not fully specified
B19: cr172 (nucleic acid)
guide: B1 guide with A47T, G60C, G61T, A64T, C68A, C69G
modifications: listed as DNA, chemistry not fully specified
B20: cr489 (nucleic acid)
guide: B1 guide with G60C, G61T, A65G, C68A, C69G, C73G, G85C
modifications: listed as DNA, chemistry not fully specified
B21: cr195 (nucleic acid)
guide: B1 guide with G60C, G61T, A64C, C68A, C69G, G79T
modifications: listed as DNA, chemistry not fully specified
B22: cr956 (nucleic acid)
guide: B1 guide with T46A, G60C, G61T, C68A, C69G
modifications: listed as DNA, chemistry not fully specified
B23: cr269 (nucleic acid)
guide: B1 guide with G60C, G61T, C68A, C69G, G72C, C73A, G85T, C86G
modifications: listed as DNA, chemistry not fully specified
B24: cr713 (nucleic acid)
guide: B1 guide with G60C, G61T, T62A, A65G, A67T, C68A, C69G
modifications: listed as DNA, chemistry not fully specified
B25: cr363 (nucleic acid)
guide: B1 guide with G60T, G61T, T62C, A67G, C68A, C69A
modifications: listed as DNA, chemistry not fully specified
B26: cr152 (nucleic acid)
guide: B1 guide with G60C, G61T, C68A, C69G, G72A, C73A, G85T, C86T
modifications: listed as DNA, chemistry not fully specified
B27: cr774 (nucleic acid)
guide: B1 guide with A20C, G60C, G61T, C68A, C69G
modifications: listed as DNA, chemistry not fully specified
B28: cr666 (nucleic acid)
guide: B1 guide with C45T, G48A, G60C, G61T, C68A, C69G, C73A, A74G, T84C, G85T
modifications: listed as DNA, chemistry not fully specified
B29: cr698 (nucleic acid)
guide: B1 guide with G29A, T54A, G60C, G61T, A64T, C68A, C69G
modifications: listed as DNA, chemistry not fully specified
B30: cr789 (nucleic acid)
guide: B1 guide with G60C, G61T, C68A, C69G, G72C, C86G
modifications: listed as DNA, chemistry not fully specified
B31: cr932 (nucleic acid)
guide: B1 guide with C30T, G60C, G61T, C68A, C69G
modifications: listed as DNA, chemistry not fully specified
B32: cr893 (nucleic acid)
guide: B1 guide with G60C, G61T, C68A, C69G, C86T
modifications: listed as DNA, chemistry not fully specified
B33: cr446 (nucleic acid)
guide: B1 guide with C45T, G48A, A59T, G60C, G61T, C68A, C69G, T70A, C73G, G85C
modifications: listed as DNA, chemistry not fully specified
B34: cr145 (nucleic acid)
guide: B1 guide with G60C, G61T, A65T, C68A, C69G
modifications: listed as DNA, chemistry not fully specified
B35: cr636 (nucleic acid)
guide: B1 guide with G60C, G61T, A64G, A65T, C68A, C69G
modifications: listed as DNA, chemistry not fully specified
B36: cr839 (nucleic acid)
guide: B1 guide with G60C, G61T, A65G, C68A, C69G
modifications: listed as DNA, chemistry not fully specified
B37: cr023 (nucleic acid)
guide: B1 guide with A8G, G60C, G61T, C68A, C69G
modifications: listed as DNA, chemistry not fully specified
B38: cr604 (nucleic acid)
guide: B1 guide with T46A, G60C, G61T, A65C, C68A, C69G
modifications: listed as DNA, chemistry not fully specified
B39: cr534 (nucleic acid)
guide: B1 guide with C45T, G48A, G60C, G61T, C68A, C69G, G72A, C86T
modifications: listed as DNA, chemistry not fully specified
B40: cr653 (nucleic acid)
guide: B1 guide with G60C, G61T, C68A, C69G, C76A, G82T
modifications: listed as DNA, chemistry not fully specified
B41: cr321 (nucleic acid)
guide: B1 guide with A31C, G60C, G61T, C68A, C69G
modifications: listed as DNA, chemistry not fully specified

Tested on: K562 CRISPRi cells
Assay: Constant region variant library pooled growth screen, K562
Assay type: cell-based, human
Settings: sgRNA constant region variants
Method in brief: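 K562 CRISPRi, duplicate transductions; puromycin 1 d 0.75 μg/mL then 1 d 0.85 μg/mL; >2000× coverage in spinner flasks; harvests at 4-8 d growth. Activity = phenotype ÷ phenotype with unmodified constant region.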

[1] = activity relative to the original, un-modified constant region cr995
[2] = relative to the original, un-modified constant region cr995 (= 1)

Molecule	Mean relative activity [1]	Mean relative activity [2]
B1	1.072	–
B2	–	1.006
B3	–	1.006
B4	–	1.005
B5	–	1.004
B6	–	1.004
B7	–	1.004
B8	–	1.003
B9	–	1.003
B10	–	1.002
B11	–	1.002
B12	–	1.002
B13	–	1.002
B14	–	1.001
B15	1.072	–
B16	–	1
B17	–	0.9999
B18	–	0.9997
B19	–	0.9996
B20	–	0.9991
B21	–	0.9986

Molecule	Mean relative activity [1]	Mean relative activity [2]
B22	–	0.9983
B23	–	0.9979
B24	–	0.9979
B25	1.07	–
B26	–	0.9971
B27	–	0.9968
B28	–	0.996
B29	–	0.9956
B30	–	0.9955
B31	–	0.9947
B32	–	0.9932
B33	–	0.9926
B34	–	0.9925
B35	–	0.992
B36	–	0.9918
B37	–	0.9917
B38	–	0.9912
B39	1.069	–
B40	–	0.9907
B41	–	0.9906
